The record followed here is PMC12802285, “PPE64 is a mycomembrane channel protein that functions in heme iron uptake and moonlights in biofilm formation in Mycobacterium tuberculosis” (mBio, 2025).

Several values for one entry are separate records, joined by “and”; a condition that tells them apart may be missing. Equal values may be shown once.

This data set concerns the molecule itself. The data set can be described thus: native gel or EMSA.

B1: PPE64 mycomembrane channel protein (recombinant, detergent-refolded) (natural protein)
chain: MAHFSVLPPEINSLRMYLGAGSAPMLQAAAAWDGLAAELGTAASSFSSVTTGLTGQAWQGPASAAMAAAAAPYAGFLTTASAQAQLAAGQAKAVASVFEAAKAAIVPPAAVAANREAFLALIRSNWLGLNAPWIAAVESLYEEYWAADVAAMTGYHAGASQAAAQLPLPAGLQQFLNTLPNLGIGNQGNANLGGGNTGSGNIGNGNKGSSNLGGGNIGNNNIGSGNRGSDNFGAGNVGTGNIGFGNQGPIDVNLLATPGQNNVGLGNIGNNNMGFGNTGDANTGGGNTGNGNIGGGNTGNNNFGFGNTGNNNIGIGLTGNNQMGINLAGLLNSGSGNIGIGNSGTNNIGLFNSGSGNIGVFNTGANTLVPGDLNNLGVGNSGNANIGFGNAGVLNTGFGNASILNTGLGNAGELNTGFGNAGFVNTGFDNSGNVNTGNGNSGNINTGSWNAGNVNTGFGIITDSGLTNSGFGNTGTDVSGFFNTPTGPLAVDVSGFFNTASGGTVINGQTSGIGNIGVPGTLFGSVRSGLNTGLFNMGTAISGLFNLRQLLG
notes: also called PPE64_(OPOE); PPE64DDM
Take B1: the “stoichiometry N” value is 9 and 3.
